From US5656452A, “NF-ATp, ' a T lymphocyte DNA-binding protein” (President and Fellows of Harvard College, priority 1993, dated 1997)

Columns and labels:
[1] = molecular target: c-Fos + c-Jun (UniProt P12841;P17325 P12841:1-380,P17325:1-334); assay: EMSA; no NF-ATp present; conditions: tags: full-length; label: 32P
Procedure: (§1) Figure 12: FIG. 12 is a photograph of an EMSA gel. Binding of a recombinant fragment of NF-AT_p (NF-AT_pXS) to target DNA and association of the recombinant NF-AT_p fragment with Fos and Jun proteins was evaluated. The binding of the recombinant fragment of murine NF-AT_p to the distal NF-AT site of the murine IL-2 promoter was assessed by EMSA in the presence or absence of a 200-fold excess of unlabelled competitor oligonucleotides as shown in Lane 1–5. The arrows indicate two DNA-protein complexes formed with NF-AT_pXS. Full-length recombinant c-Fos and c-Jun proteins were included in the same binding reactions, as shown in Lanes 7–9. The open arrows indicate Jun—Jun-NF-AT_pXS complexes, while the closed arrows indicate Fos-Jun-NF-AT_pXS complexes.

[2] = molecular target: NF-ATp XS + c-Jun (UniProt Q60591;P17325 Q60591:400-863,P17325:1-334); assay: EMSA; slower-migrating Jun-Jun-NF-ATp complex; conditions: tags: His6 on NF-ATp XS; full-length c-Jun; label: 32P
Procedure: as §1

[3] = molecular target: NF-ATp (T cell) + c-Fos + c-Jun (UniProt Q60591;P12841;P17325 Q60591:1-927,P12841:1-380,P17325:1-334); assay: EMSA; upper complex with partially purified NF-ATp; not seen with c-Fos only; conditions: tags: native NF-ATp with recombinant c-Fos and c-Jun; label: 32P
Procedure: Figure 7: FIG. 7 is a photograph of an EMSA gel showing the results of an EMSA. […] Partially purified NF-AT_p was incubated with labeled oligonucleotide corresponding to the distal NF-AT site of the murine IL-2 promoter, either alone (lanes 1, 7, 13), with full length or truncated (T) recombinantly produced c-Fos and c-Jun proteins (lanes 2–5 and 8–11, respectively) or with an equivalent concentration of bovine serum albumin. Lane 5 contained 50% more c-Fos and c-Jun compared to lane 4. Lanes 11–13 contain half the amount of NF-AT_p compared to lanes 1–10. […] Bound complexes were separated from free probe by EMSA. The position of free probe, of the lower (NF-AT_p) complex and upper (NF-AT_p-Fos-Jun) complex are indicated.

[4] = molecular target: T1, NF-ATp (purified from Cl.7W2 T cells) (Mus musculus, UniProt Q60591 SEQ:1-890); assay: EMSA; purified 120 kDa protein, renatured from gel; conditions: tags: native; label: 32P
T1 chain: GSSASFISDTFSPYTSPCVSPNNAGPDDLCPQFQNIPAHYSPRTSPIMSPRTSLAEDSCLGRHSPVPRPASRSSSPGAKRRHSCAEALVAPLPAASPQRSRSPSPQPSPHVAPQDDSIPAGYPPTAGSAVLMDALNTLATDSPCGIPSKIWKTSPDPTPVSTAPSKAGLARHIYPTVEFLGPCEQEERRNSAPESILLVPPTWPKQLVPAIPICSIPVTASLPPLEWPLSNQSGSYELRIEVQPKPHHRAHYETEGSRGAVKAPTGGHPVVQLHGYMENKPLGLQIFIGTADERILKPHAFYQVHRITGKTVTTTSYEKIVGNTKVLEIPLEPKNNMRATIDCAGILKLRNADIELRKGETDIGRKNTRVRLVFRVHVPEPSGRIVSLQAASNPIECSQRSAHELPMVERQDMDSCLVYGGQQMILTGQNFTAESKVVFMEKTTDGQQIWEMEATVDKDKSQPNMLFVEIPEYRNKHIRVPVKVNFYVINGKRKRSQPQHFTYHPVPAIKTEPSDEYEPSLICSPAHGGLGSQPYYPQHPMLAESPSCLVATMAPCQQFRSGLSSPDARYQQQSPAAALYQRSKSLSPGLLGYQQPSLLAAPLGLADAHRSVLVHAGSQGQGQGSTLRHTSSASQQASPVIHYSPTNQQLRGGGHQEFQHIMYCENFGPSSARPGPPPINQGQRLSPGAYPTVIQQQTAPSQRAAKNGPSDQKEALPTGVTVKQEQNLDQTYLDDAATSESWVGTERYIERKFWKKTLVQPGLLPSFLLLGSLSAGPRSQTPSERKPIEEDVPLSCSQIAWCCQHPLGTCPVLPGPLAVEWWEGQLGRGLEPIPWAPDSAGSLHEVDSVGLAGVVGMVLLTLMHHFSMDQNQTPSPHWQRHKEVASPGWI
Procedure: EMSAs were performed using 18 μl of renatured proteins in a 30 μl mix containing 4 mM Hepes, pH 7.4, 84 mM NaCl, 20 mM KCl, 0.08 mM EDTA, 9% glycerol, 0.7 mg/ml BSA, 17 μg/ml poly(dI:dC) and 0.125 ng of ^32P-labelled oligonucleotide. For competition assays, a 200-fold excess of unlabeled oligonucleotide was added to the reaction. The reactions were incubated for 15 minutes at room temperature followed by electrophoresis at 4° C. on 4% Tris/borate/EDTA/acrylamide gels. The NF-AT oligonucleotide used had the sequence GCCCAAAGAG-GAAAATTTGTTTCATACAG (SEQ ID NO:1), corresponding to the distal NF-AT site from the murine IL-2 promoter (nucleotides −295 to −267 relative to the transcription start site, (Serfling, E., Barthelmas, R., Pfeuffer, I., Schenk, B., Zarius, S., Swoboda, R., Mercurio, F., and Karin, M. (1989) *EMBO J.* 8, 465–473)). Oligonucleotides bearing mutations in the NF-AT site were as follows: M1, […] (SEQ ID NO:2); M2, […] (SEQ ID NO:3); M3, […] […]
Figure 8: FIG. 8 is a photograph of an EMSA gel showing an analysis of NF-AT_p by renaturation of NF-AT_p activity following purification of the protein using SDS-polyacrylamide gel electrophoresis. […] After electrophoresis, the gel was sliced, proteins were eluted from gel slices and renatured, and the fractionated proteins were evaluated in an EMSA for their ability to bind to the NF-AT site of the murine IL-2 promoter.

[5] = molecular target: NF-ATp XS + c-Fos + c-Jun (UniProt Q60591;P12841;P17325 Q60591:400-863,P12841:1-380,P17325:1-334); assay: EMSA; Fos-Jun-NF-ATp complex; competed by AP-1 oligonucleotide; c-Fos alone does not associate; conditions: tags: His6 on NF-ATp XS; full-length c-Fos and c-Jun; label: 32P
Procedure: as §1

[6] = molecular target: T2, NF-ATp XS (464-aa recombinant fragment of murine NF-ATp) (Mus musculus, UniProt Q60591 SEQ:226-689); assay: EMSA; two complexes; self-competed by 200-fold excess; methylation interference shows GGAA core required; conditions: label: 32P
T2 chain: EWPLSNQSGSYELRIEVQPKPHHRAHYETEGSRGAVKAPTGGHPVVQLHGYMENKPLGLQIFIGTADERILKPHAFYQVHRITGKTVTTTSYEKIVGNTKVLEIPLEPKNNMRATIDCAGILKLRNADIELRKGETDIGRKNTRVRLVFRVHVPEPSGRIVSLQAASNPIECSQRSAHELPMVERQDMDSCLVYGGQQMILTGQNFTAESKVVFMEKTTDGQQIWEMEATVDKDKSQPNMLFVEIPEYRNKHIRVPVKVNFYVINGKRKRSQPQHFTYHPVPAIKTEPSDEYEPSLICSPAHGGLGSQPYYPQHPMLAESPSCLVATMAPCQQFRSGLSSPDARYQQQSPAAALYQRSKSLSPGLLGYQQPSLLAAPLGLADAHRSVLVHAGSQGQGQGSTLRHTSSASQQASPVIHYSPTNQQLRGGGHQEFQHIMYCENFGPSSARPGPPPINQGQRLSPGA
Procedure: (§2) EMSAs were performed using 18 μl of renatured proteins in a 30 μl mix containing 4 mM Hepes, pH 7.4, 84 mM NaCl, 20 mM KCl, 0.08 mM EDTA, 9% glycerol, 0.7 mg/ml BSA, 17 μg/ml poly(dI:dC) and 0.125 ng of ^32P-labelled oligonucleotide. For competition assays, a 200-fold excess of unlabeled oligonucleotide was added to the reaction. The reactions were incubated for 15 minutes at room temperature followed by electrophoresis at 4° C. on 4% Tris/borate/EDTA/acrylamide gels. The NF-AT oligonucleotide used had the sequence GCCCAAAGAG-GAAAATTTGTTTCATACAG (SEQ ID NO:1), corresponding to the distal NF-AT site from the murine IL-2 promoter (nucleotides −295 to −267 relative to the transcription start site, (Serfling, E., Barthelmas, R., Pfeuffer, I., Schenk, B., Zarius, S., Swoboda, R., Mercurio, F., and Karin, M. (1989) *EMBO J.* 8, 465–473)). Oligonucleotides bearing mutations in the NF-AT site were as follows: M1, […] (SEQ ID NO:2); M2, […] […]
(§3) Figure 12: FIG. 12 is a photograph of an EMSA gel. Binding of a recombinant fragment of NF-AT_p (NF-AT_pXS) to target DNA and association of the recombinant NF-AT_p fragment with Fos and Jun proteins was evaluated. The binding of the recombinant fragment of murine NF-AT_p to the distal NF-AT site of the murine IL-2 promoter was assessed by EMSA in the presence or absence of a 200-fold excess of unlabelled competitor oligonucleotides as shown in Lane 1–5. […]

[7] = molecular target: T2, NF-ATp XS (464-aa recombinant fragment …); assay: competition; 200-fold excess competes as strongly as wild type
Procedure: as §2, §3

[8] = molecular target: T2, NF-ATp XS (464-aa recombinant fragment …); assay: competition; 200-fold excess does not compete
Procedure: as §2, §3

NF-ATp (T cell) + c-Fos + c-Jun, sequence (Q60591 whole entry, chain 1 of 3, the tested form may be a part): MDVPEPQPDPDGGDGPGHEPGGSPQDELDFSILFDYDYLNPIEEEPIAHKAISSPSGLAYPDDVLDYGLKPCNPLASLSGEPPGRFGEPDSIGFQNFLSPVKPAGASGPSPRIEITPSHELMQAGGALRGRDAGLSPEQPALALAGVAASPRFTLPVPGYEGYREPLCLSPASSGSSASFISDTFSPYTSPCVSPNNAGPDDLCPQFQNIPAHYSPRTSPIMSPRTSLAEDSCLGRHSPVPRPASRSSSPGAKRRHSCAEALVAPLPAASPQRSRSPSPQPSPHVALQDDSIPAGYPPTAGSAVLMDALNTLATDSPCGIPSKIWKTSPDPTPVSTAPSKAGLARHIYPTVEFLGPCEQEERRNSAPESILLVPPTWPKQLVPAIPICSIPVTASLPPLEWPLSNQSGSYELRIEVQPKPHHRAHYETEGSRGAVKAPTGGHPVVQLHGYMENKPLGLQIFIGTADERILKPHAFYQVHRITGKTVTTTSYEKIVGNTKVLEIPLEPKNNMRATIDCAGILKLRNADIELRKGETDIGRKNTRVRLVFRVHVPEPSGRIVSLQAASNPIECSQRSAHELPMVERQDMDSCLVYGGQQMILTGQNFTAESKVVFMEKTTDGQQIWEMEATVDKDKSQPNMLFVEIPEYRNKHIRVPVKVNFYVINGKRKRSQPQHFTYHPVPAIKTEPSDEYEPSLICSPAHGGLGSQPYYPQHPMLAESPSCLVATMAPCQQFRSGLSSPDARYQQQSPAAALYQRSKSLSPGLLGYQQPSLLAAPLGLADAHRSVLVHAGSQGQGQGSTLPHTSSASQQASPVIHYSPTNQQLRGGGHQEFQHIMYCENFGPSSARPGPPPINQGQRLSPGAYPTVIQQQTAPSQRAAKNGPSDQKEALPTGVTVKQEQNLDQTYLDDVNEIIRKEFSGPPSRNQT
NF-ATp (T cell) + c-Fos + c-Jun, sequence (P12841 whole entry, chain 2 of 3, the tested form may be a part): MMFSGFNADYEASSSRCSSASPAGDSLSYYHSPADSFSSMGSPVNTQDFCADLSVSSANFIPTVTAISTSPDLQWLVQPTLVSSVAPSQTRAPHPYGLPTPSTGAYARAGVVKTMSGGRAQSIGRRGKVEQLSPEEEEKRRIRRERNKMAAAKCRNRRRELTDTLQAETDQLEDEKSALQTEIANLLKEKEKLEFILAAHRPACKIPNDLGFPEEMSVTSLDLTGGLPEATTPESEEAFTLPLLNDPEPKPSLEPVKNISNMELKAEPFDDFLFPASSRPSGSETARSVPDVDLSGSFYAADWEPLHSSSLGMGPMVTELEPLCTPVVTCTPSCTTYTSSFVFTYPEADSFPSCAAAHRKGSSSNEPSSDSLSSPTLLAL
NF-ATp (T cell) + c-Fos + c-Jun, sequence (P17325 whole entry, chain 3 of 3, the tested form may be a part): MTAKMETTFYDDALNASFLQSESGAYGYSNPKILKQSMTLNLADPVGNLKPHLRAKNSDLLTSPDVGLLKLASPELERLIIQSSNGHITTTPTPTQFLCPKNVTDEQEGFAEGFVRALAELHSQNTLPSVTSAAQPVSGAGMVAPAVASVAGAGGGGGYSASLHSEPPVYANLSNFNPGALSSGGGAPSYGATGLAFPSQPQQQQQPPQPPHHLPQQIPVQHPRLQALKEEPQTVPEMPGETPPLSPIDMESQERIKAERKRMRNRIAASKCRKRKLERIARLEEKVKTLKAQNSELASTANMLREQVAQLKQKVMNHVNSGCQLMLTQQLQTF
NF-ATp XS + c-Jun, sequence (P17325 whole entry, one chain of several): as the sequence (P17325 whole entry, chain 3 of 3, the tested form may be a part) above
NF-ATp XS + c-Fos + c-Jun, sequence (P12841 whole entry, chain 2 of 2): as the sequence (P12841 whole entry, chain 2 of 3, the tested form may be a part) above
NF-ATp XS + c-Fos + c-Jun, sequence (P17325 whole entry, chain 3 of 2): as the sequence (P17325 whole entry, chain 3 of 3, the tested form may be a part) above
c-Fos + c-Jun, sequence (P12841 whole entry, chain 1 of 2, the tested form may be a part): as the sequence (P12841 whole entry, chain 2 of 3, the tested form may be a part) above
c-Fos + c-Jun, sequence (P17325 whole entry, chain 2 of 2, the tested form may be a part): as the sequence (P17325 whole entry, chain 3 of 3, the tested form may be a part) above

B1: NF-AT oligonucleotide (distal NF-AT site, murine IL-2 promoter) (dsDNA)
DNA 1: GCCCAAAGAGGAAAATTTGTTTCATACAG
DNA 2: CTGTATGAAACAAATTTTCCTCTTTGGGC
binding result [1]: no binding | binding result [2]: binds | binding result [3]: binds | binding result [4]: binds | binding result [5]: binds | binding result [6]: binds

B2: M1 (dsDNA)
DNA 1: GCCCAAAGAGGAAAATTTGTTTATATCAG
DNA 2: CTGATATAAACAAATTTTCCTCTTTGGGC
binding result [7]: binds

B3: M3 (dsDNA)
DNA 1: GCCCAAAGACCTTAATTTGTTTCATACAG
DNA 2: CTGTATGAAACAAATTAAGGTCTTTGGGC
binding result [8]: no binding
